Numbering of substitutions follows the chain as printed.
Legend:
[1] = target: T1, human CD1a protein (pool B) (human, UniProt P06126 18-295, limits assumed); test: ELISA, 100 µg/ml antibody
T1 construct: Recombinant protein of the ELISA (coated) and the Biacore T200 titration; whole entry named; also called human CD1a pool B; full length CD1a
Experimental: (§1) CD1a-specific antibodies were identified by ELISA. […] 20 μl/well of peroxidase-conjugated goat anti-species IgG Fc-specific F(ab′)2 fragment (Jackson ImmunoResearch), diluted 1:5000 in block buffer was added and incubated at room temperature for 1 hour, followed by washing with wash buffer.
(§2) The antibodies were titrated through a dilution series and compared to a control rabbit IgG antibody.

[2] = target: T1, human CD1a protein (pool B); test: ELISA, 0.316 µg/ml antibody
Experimental: as §1, §2

[3] = target: T2, human CD1a expressed on cells (human, UniProt P06126 17-327; P61769 21-119); test: flow cytometry, HEK-293 cells, 0.0316 µg/ml antibody
T2 construct: also called HEK - CD1a; C1R - CD1a
Experimental: (§3) Binding to proteins expressed on HEK, C1R and MOLT4 cell lines was assessed. […] The C1R-CD1a, C1R-empty vector and MOLT4 cell lines were washed in 1×PBS on the day required. All cell lines were counted and resuspended in 1×PBS and then stained for 30 minutes at 37° C. using the DiI or DiO cellular stains (Invitrogen). Cells were washed with flow cytometry buffer (1% bovine serum albumin, 2 mM EDTA and 0.1% sodium azide in PBS) before mixing 2 DiI-stained and DiO-stained populations together. The cells (20 μl/well) were then added to dilutions of antibody sample (B cell culture supernatant, TAP supernatant, clone supernatant, purified antibody solution) (20 μl/well) and incubated for 1 hour at 4° C. in a flow cytometry assay plate, before being washed with flow cytometry buffer. 10 μl/well of Alexafluor647-conjugated goat anti-species IgG Fc-specific F(ab′)2 fragment (Jackson ImmunoResearch), diluted 1:2500 in flow cytometry buffer, was added and incubated at 4° C. for 30 minutes, followed by washing with wash buffer. The fluorescence intensity was then measured on an iQue screener PLUS.
(§4) HEK-293 cells were transiently transfected with human CD1a, CD1b, CD1c or CD1d and co-transfected with human β2M.

[4] = target: T3, human CD1b expressed on HEK-293 cells (human, UniProt P29016 18-333; P61769 21-119); test: as above
T3 construct: also called HEK - CD1b
Experimental: as §3, §4

[5] = target: T4, human CD1c expressed on HEK-293 cells (human, UniProt P29017 18-333; P61769 21-119); test: as above
T4 construct: also called HEK - CD1c
Experimental: as §3, §4

[6] = target: T5, human CD1d expressed on HEK-293 cells (human, UniProt P15813 20-335; P61769 21-119); test: as above
T5 construct: also called HEK - CD1d
Experimental: as §3, §4

[7] = target: Chinese variant CD1a protein (human) (UniProt P06126); test: ELISA, 0.01 µg/ml antibody
[8] = target: T6, Cynomolgus monkey CD1a protein (Cynomolgus monkey); test: ELISA, 0.1 µg/ml antibody
T6 chain: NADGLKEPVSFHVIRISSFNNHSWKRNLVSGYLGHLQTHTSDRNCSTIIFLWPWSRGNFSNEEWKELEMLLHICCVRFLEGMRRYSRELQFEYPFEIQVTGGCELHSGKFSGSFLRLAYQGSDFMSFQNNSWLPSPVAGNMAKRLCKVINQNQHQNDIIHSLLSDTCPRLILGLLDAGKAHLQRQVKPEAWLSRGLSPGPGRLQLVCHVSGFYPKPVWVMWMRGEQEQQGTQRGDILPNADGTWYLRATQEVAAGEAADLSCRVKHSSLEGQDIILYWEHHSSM

[9] = target: chimeric CD1a pool B protein [human CD1a lipid binding domain, mouse CD1d Ig domain] (human; mouse, UniProt P06126 18-201; P11609 205-297, limits assumed); test: ELISA, 3.16 µg/ml antibody
Experimental: as §1
The antibodies were titrated through a dilution series and compared to a control rabbit IgG antibody. […] Data shown for purified antibodies.

[10] = target: T2, human CD1a expressed on cells; test: flow cytometry, MOLT4 cells, 31.6 µg/ml antibody
Experimental: (§5) CD1a-specific antibodies were identified by flow cytometry. Binding to proteins expressed on HEK, C1R and MOLT4 cell lines was assessed. […] The C1R-CD1a, C1R-empty vector and MOLT4 cell lines were washed in 1×PBS on the day required. All cell lines were counted and resuspended in 1×PBS and then stained for 30 minutes at 37° C. using the DiI or DiO cellular stains (Invitrogen). Cells were washed with flow cytometry buffer (1% bovine serum albumin, 2 mM EDTA and 0.1% sodium azide in PBS) before mixing 2 DiI-stained and DiO-stained populations together. The cells (20 μl/well) were then added to dilutions of antibody sample (B cell culture supernatant, TAP supernatant, clone supernatant, purified antibody solution) (20 μl/well) and incubated for 1 hour at 4° C. in a flow cytometry assay plate, before being washed with flow cytometry buffer. 10 μl/well of Alexafluor647-conjugated goat anti-species IgG Fc-specific F(ab′)2 fragment (Jackson ImmunoResearch), diluted 1:2500 in flow cytometry buffer, was added and incubated at 4° C. for 30 minutes, followed by washing with wash buffer. The fluorescence intensity was then measured on an iQue screener PLUS.
(§6) Binding was quantified as fold change in fluorescence intensity geomean over background assessed by flow cytometry.

[11] = target: T1, human CD1a protein (pool B); test: ELISA, 10 µg/ml antibody
Experimental: as §1, §2

[12] = target: T3, human CD1b expressed on HEK-293 cells; test: flow cytometry, HEK-293 cells
Experimental: as §3, §4

[13] = target: T4, human CD1c expressed on HEK-293 cells; test: flow cytometry, HEK-293 cells
Experimental: as §3, §4

[14] = target: T5, human CD1d expressed on HEK-293 cells; test: flow cytometry, HEK-293 cells
Experimental: as §3, §4

[15] = target: T2, human CD1a expressed on cells; test: flow cytometry, C1R cells, 10 µg/ml antibody
Experimental: as §3, §6

[16] = target: T1, human CD1a protein (pool B); test: SPR (Biacore T200), antibody captured, human CD1a titrated, 1:1 binding model
Experimental: The affinity of the purified antibodies to human CD1a was assessed using a Biacore T200 instrument (GE Healthcare) by capturing the antibody to an immobilized anti-species IgG F(ab′)2 followed by titration of human CD1a. Affinipure Goat anti-species IgG-F(ab′)2 fragment specific (Jackson ImmunoResearch) was immobilized on a CM5 Sensor Chip (GE Healthcare) via amine coupling chemistry to a capture level of ˜5000 response units (RUs). HBS-EP+ buffer (10 mM HEPES pH 7.4, 0.15 M NaCl, 3 mM EDTA, 0.05% Surfactant P20, GE Healthcare) was used as the running buffer with a flow rate of 10 μL/min. A 10 μL injection of test antibody at 0.5 μg/mL was used for capture by the immobilized Goat Anti-species Fab.
The surface was regenerated between cycles by injection of 2×10 μL of 40 mM HCl, interspersed by a 10 μL injection of 5 mM NaOH at flowrate of 10 μL/min. Background subtraction binding curves were analyzed using the Biacore T200 evaluation software following standard procedures. Kinetic parameters were determined from the fitting algorithm. This assay was performed at the clone supernatant and purified antibody stage.
Affinity was required to be <100 nM to be considered for progression.

[17] = target: T2, human CD1a expressed on cells; test: flow cytometry, MOLT4 cells, 1 µg/ml antibody
Experimental: as §5, §6

[18] = target: T2, human CD1a expressed on cells; test: flow cytometry, HEK-293 cells, 0.1 µg/ml antibody
Experimental: as §3, §4

[19] = target: T3, human CD1b expressed on HEK-293 cells; test: flow cytometry, HEK-293 cells, 0.1 µg/ml antibody
Experimental: as §3, §4

[20] = target: T4, human CD1c expressed on HEK-293 cells; test: flow cytometry, HEK-293 cells, 0.1 µg/ml antibody
Experimental: as §3, §4

[21] = target: T5, human CD1d expressed on HEK-293 cells; test: flow cytometry, HEK-293 cells, 0.1 µg/ml antibody
Experimental: as §3, §4

[22] = target: Chinese variant CD1a protein (human) (UniProt P06126); test: ELISA, 1 µg/ml antibody
[23] = target: T1, human CD1a protein (pool B); test: ELISA, 3.16 µg/ml antibody
Experimental: as §1, §2

[24] = target: T2, human CD1a expressed on cells; test: flow cytometry, HEK-293 cells, 3.16 µg/ml antibody
Experimental: as §3, §4

[25] = target: T4, human CD1c expressed on HEK-293 cells; test: flow cytometry, HEK-293 cells, 3.16 µg/ml antibody
Experimental: as §3, §4

[26] = target: T5, human CD1d expressed on HEK-293 cells; test: flow cytometry, HEK-293 cells, 3.16 µg/ml antibody
Experimental: as §3, §4

Chinese variant CD1a protein (human), sequence (P06126 18-295, change not shown): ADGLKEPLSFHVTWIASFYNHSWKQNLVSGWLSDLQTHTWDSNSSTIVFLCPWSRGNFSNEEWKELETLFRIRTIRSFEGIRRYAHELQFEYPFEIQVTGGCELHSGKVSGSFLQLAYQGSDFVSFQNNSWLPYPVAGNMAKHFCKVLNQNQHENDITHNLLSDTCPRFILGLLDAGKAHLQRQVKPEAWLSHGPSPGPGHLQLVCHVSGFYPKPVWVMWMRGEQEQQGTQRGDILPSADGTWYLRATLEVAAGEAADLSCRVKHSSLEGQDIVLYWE
T1 sequence (P06126 18-295 limits assumed): as the sequence (P06126 18-295, change not shown) above
chimeric CD1a pool B protein [human CD1a lipid binding domain, mouse CD1d Ig domain], sequence (P06126 other isoform, or with tags, fused parts or gaps mutant limits assumed): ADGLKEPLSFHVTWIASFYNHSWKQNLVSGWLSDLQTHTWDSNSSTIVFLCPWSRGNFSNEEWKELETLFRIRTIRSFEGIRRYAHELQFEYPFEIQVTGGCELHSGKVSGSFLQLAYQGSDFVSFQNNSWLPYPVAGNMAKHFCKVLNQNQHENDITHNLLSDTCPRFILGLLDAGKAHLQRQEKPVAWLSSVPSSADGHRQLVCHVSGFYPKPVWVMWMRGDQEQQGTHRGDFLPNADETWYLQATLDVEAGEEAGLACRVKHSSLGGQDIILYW

B1: 110 (VR12112) (antibody, V domains shown)
VH: QSVEESGGRLVTPGTPLTLTCTVSGFSLSSYAMIWVRQAPGKGLEWIGIINSSDNTHYATWAKGRFTISKTSTTVDLKITSPTTEDTATYFCARDPYDYGYGWYFDLWGPGTLVTVSS
VL: AQVLTQTPSPVSAAVGGTVTINCQASQSVFNNKNLAWYQQKPGQPPKLLIYKASTLASGVSSRFKGSGSGTQFALTISGVQCDDAATYYCQGEFSCSSTDCVTFGGGTEVVVK
notes: also called OX110; antibody 110
Optical Density (OD) [1]: 1.23 OD | Optical Density (OD) [2]: 1.18 OD | Fluorescence Intensity Geomean (normalized to background) [3]: 8.9 fold over background | Fluorescence Intensity Geomean (normalized to background) [4]: 1 fold over background | Fluorescence Intensity Geomean (normalized to background) [5]: 1 fold over background | Fluorescence Intensity Geomean (normalized to background) [6]: 1 fold over background | Optical Density (OD) [7]: 1.4 OD | Optical Density (OD) [8]: 0.53 OD | Optical Density (OD) [9]: 1.53 OD | Fluorescence Intensity Geomean (normalized to background) [10]: 7.5 fold over background | Optical Density (OD) [11]: 1.28 OD | binding result [12]: no binding (tested: 100 µg/ml (highest tested)) | binding result [13]: no binding (tested: 100 µg/ml (highest tested)) | binding result [14]: no binding (tested: 100 µg/ml (highest tested)) | Fluorescence Intensity Geomean (normalized to background) [15]: 8.3 fold over background | Kd [16]: 1970 pM | Fluorescence Intensity Geomean (normalized to background) [17]: 33 fold over background | Fluorescence Intensity Geomean (normalized to background) [18]: 20.2 fold over background | Fluorescence Intensity Geomean (normalized to background) [19]: 1 fold over background | Fluorescence Intensity Geomean (normalized to background) [20]: 1 fold over background | Fluorescence Intensity Geomean (normalized to background) [21]: 1 fold over background | Optical Density (OD) [22]: 1.79 OD | Optical Density (OD) [23]: 1.27 OD | Fluorescence Intensity Geomean (normalized to background) [24]: 31.5 fold over background | Fluorescence Intensity Geomean (normalized to background) [25]: 1.1 fold over background | Fluorescence Intensity Geomean (normalized to background) [26]: 1 fold over background

B2: 77A (VR11851) (antibody, V domains shown)
VH: QSVEESGGRLVTPGTPLTLTCTVSGFSLSSYAMSWVRQAPGKGLEWIGIISSSGTTYYASWAKGRFTISKTSTTVDLKITSPTTEDTATYFCARVDYYSSGWGGLWGPGTLVTVSS
VL: AVEMTQTPASMSAAVGGTVTIKCQASEDIYSNLAWYQQKPGQPPKLLIYGASTLASGVPSRFKGSGSGTEYTLTISGVQCDDAATYYCQCTYDTSSYGNTFGGGTEMVVE
notes: also called OX77a; antibody 77a
Optical Density (OD) [1]: 1.39 OD | Optical Density (OD) [2]: 1.39 OD | Fluorescence Intensity Geomean (normalized to background) [3]: 24.9 fold over background | Fluorescence Intensity Geomean (normalized to background) [4]: 0.9 fold over background | Fluorescence Intensity Geomean (normalized to background) [5]: 1 fold over background | Fluorescence Intensity Geomean (normalized to background) [6]: 0.9 fold over background | Optical Density (OD) [7]: 0.79 OD | Optical Density (OD) [8]: 0.24 OD | Optical Density (OD) [9]: 1.28 OD | Fluorescence Intensity Geomean (normalized to background) [10]: 2.2 fold over background | Optical Density (OD) [11]: 1.34 OD | binding result [12]: no binding (tested: 100 µg/ml (highest tested)) | binding result [13]: no binding (tested: 100 µg/ml (highest tested)) | binding result [14]: no binding (tested: 100 µg/ml (highest tested)) | Fluorescence Intensity Geomean (normalized to background) [15]: 2.3 fold over background | Kd [16]: 240 pM | koff [16]: 0.000113 s⁻¹ | kon [16]: 469000 M⁻¹ s⁻¹ | Fluorescence Intensity Geomean (normalized to background) [17]: 13.5 fold over background | Fluorescence Intensity Geomean (normalized to background) [18]: 43.8 fold over background | Fluorescence Intensity Geomean (normalized to background) [19]: 1 fold over background | Fluorescence Intensity Geomean (normalized to background) [20]: 0.9 fold over background | Fluorescence Intensity Geomean (normalized to background) [21]: 0.9 fold over background | Optical Density (OD) [22]: 0.78 OD | Optical Density (OD) [23]: 1.33 OD | Fluorescence Intensity Geomean (normalized to background) [24]: 23.3 fold over background | Fluorescence Intensity Geomean (normalized to background) [25]: 0.9 fold over background | Fluorescence Intensity Geomean (normalized to background) [26]: 0.9 fold over background

B3: 111 (VR12113) (antibody, V domains shown)
VH: QSVEESGGRLVTPGTPLTLTCTASGFSLSTYAMSWVRQAPGKGLEWIGIISSSGSTYYASWAKGRFTISKTSTTVDLKITSPTTEDTATYFCARETWYWLDLWGQGTLVTVSS
VL: B2 VL with M11V, K22N, T91A, T94S, N99T, T100P, M107V, E110K
notes: also called OX111
Optical Density (OD) [1]: 1.12 OD | Optical Density (OD) [2]: 1.04 OD | Fluorescence Intensity Geomean (normalized to background) [3]: 11.1 fold over background | Fluorescence Intensity Geomean (normalized to background) [4]: 1 fold over background | Fluorescence Intensity Geomean (normalized to background) [5]: 1 fold over background | Fluorescence Intensity Geomean (normalized to background) [6]: 1 fold over background | Optical Density (OD) [7]: 1.33 OD | Optical Density (OD) [8]: 0.66 OD | Optical Density (OD) [9]: 1.41 OD | Fluorescence Intensity Geomean (normalized to background) [10]: 5.4 fold over background | Optical Density (OD) [11]: 1.12 OD | binding result [12]: no binding (tested: 100 µg/ml (highest tested)) | binding result [13]: no binding (tested: 100 µg/ml (highest tested)) | binding result [14]: no binding (tested: 100 µg/ml (highest tested)) | Fluorescence Intensity Geomean (normalized to background) [15]: 11.7 fold over background | Kd [16]: ≤ 31.2 pM | koff [16]: < 1e-05 s⁻¹ | kon [16]: 321000 M⁻¹ s⁻¹ | Fluorescence Intensity Geomean (normalized to background) [17]: 31.2 fold over background | Fluorescence Intensity Geomean (normalized to background) [18]: 23.1 fold over background | Fluorescence Intensity Geomean (normalized to background) [19]: 1 fold over background | Fluorescence Intensity Geomean (normalized to background) [20]: 1 fold over background | Fluorescence Intensity Geomean (normalized to background) [21]: 1 fold over background | Optical Density (OD) [22]: 1.44 OD | Optical Density (OD) [23]: 1.13 OD | Fluorescence Intensity Geomean (normalized to background) [24]: 24.9 fold over background | Fluorescence Intensity Geomean (normalized to background) [25]: 1.1 fold over background | Fluorescence Intensity Geomean (normalized to background) [26]: 1.1 fold over background

Reference: US20250289893A1 (OXFORD UNIVERSITY INNOVATION, published 2025)
